Biological target: platelet glycoprotein (GP) IIb/IIIa on platelets of mouse platelet rich plasma (mouse) (UniProt Q9QUM0)
Assay: cell-based or functional assay

Chain of platelet glycoprotein (GP) IIb/IIIa on platelets of mouse platelet rich plasma (mouse) (Q9QUM0 32-1033, chain 1 of 2): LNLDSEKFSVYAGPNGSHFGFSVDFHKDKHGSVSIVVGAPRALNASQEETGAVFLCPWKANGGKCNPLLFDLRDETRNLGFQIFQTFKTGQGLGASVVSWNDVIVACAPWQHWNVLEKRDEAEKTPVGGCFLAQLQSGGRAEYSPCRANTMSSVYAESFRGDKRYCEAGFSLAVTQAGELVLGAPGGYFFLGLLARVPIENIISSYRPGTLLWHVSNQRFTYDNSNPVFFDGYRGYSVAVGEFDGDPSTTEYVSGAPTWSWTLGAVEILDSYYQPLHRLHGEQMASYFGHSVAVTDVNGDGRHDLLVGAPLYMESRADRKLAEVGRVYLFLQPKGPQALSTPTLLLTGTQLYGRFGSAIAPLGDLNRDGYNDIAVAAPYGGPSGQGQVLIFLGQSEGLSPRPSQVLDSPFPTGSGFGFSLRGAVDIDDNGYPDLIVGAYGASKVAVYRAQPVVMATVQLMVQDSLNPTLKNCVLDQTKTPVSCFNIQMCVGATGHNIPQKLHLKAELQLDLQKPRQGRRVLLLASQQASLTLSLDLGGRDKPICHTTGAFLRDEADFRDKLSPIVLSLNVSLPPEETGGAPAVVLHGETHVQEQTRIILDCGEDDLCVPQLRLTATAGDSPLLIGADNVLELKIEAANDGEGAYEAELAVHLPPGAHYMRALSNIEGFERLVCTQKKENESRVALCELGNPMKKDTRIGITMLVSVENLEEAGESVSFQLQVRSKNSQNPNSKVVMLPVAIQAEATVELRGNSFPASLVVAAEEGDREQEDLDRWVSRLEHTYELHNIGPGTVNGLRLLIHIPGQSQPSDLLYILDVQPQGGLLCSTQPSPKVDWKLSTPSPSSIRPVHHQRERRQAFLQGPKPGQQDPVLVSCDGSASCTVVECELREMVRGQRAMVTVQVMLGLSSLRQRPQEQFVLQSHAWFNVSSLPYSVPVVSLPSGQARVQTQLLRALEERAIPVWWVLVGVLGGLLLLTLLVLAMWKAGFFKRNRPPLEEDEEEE
Chain of platelet glycoprotein (GP) IIb/IIIa on platelets of mouse platelet rich plasma (mouse) (O54890 26-787, chain 2 of 2, further chain): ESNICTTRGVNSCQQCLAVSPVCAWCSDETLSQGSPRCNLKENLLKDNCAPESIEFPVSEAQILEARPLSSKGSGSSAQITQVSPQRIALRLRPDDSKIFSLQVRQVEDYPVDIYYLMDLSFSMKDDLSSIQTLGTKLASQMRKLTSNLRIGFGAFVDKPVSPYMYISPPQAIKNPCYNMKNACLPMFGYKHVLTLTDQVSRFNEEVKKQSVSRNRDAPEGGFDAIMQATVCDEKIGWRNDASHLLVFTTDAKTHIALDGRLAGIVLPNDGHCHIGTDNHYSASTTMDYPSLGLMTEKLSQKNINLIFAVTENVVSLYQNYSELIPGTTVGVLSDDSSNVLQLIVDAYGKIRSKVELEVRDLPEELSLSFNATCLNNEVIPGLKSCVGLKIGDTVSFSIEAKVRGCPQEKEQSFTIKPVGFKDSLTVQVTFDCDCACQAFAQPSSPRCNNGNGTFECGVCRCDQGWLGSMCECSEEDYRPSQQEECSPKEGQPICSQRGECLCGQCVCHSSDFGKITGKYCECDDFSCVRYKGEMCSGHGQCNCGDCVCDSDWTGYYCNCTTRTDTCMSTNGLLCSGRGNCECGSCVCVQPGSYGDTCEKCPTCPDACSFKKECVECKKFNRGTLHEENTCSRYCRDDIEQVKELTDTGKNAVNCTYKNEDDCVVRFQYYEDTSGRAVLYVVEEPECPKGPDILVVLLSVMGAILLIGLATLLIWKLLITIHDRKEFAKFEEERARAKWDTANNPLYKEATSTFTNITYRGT

recombinant saxatilin (from UniProt Q9DGH6 1-73) (ligand)
IC50 of inhibition of ADP-induced platelet aggregation, mouse PRP, aggregometer: 0.176 µM | treatment concentration giving a similar level of platelet aggregation inhibition: 0.7 µM

— patent publication US20130316951A1
